Results on 11 molecules are retold here after patent US11697815B2, “Regulation of gene expression through aptamer-modulated polyadenylation” (MeiraGTx UK II Limited, priority 2016, dated 2023).

Data set [1] deals with Renilla luciferase expression. In words: Renilla luciferase assay of HEK 293 cells transfected with pRL-SV40 constructs carrying U1 binding sites in the 3′ UTR. The format is cell-based. The settings on record: for suppressive effect of U1 site on luciferase gene expression (in words): no ligand; for reduction fold (luciferase activity of mutant construct / wild type construct): compared to corresponding mutant construct; for inhibition of Renilla luciferase expression/activity: compared to pRL-SV40 control vector. As to the method: Plasmid constructs: oligonucleotides (oligos) containing either wild type consensus U1 binding sequence or its mutant sequence were synthesized (IDT). The synthesized oligos were cloned into the 3′ UTR of the pRL-SV40 luciferase expression vector (Promega) using Gibson Assembly Cloning Kit (NEB). Constructs were purified (Qiagen) and verified by DNA sequencing (Genewiz).
(§1) Transfection: 3.5×10^4 HEK 293 cells were plated in a 96-well flat bottom plate the day before transfection. Plasmid DNA (500 ng) was added to a tube or a 96-well U-bottom plate. Separately, TransIT-293 reagent (Mirus; 1.4 μl) was added to 50 μl Opti-mem I media (Life Technologies), and allowed to sit for 5 minutes at room temperature (“RT”). Then, 50 μl of this diluted transfection reagent was added to the DNA, mixed, and incubated at RT for 20 min. Finally, 7 μl of this solution was added to a well of cells in the 96-well plate.
(§2) Renilla luciferase assay of cultured cells: 24 hours after the media change, plates were removed from the incubator, and equilibrated to RT for several minutes on a lab bench, and the media aspirated. Glo-lysis buffer (Promega, 100 μl, RT) was added, and the plates allowed to remain at room temp for at least 5 minutes. Then, the well contents were mixed by 50 μl trituration, and 20 μl of each well was mixed with 20 μl of Renilla-glo reagent in a solid-white 384-well plate. Ten minutes later, luminescence was measured using a Tecan machine with 500 msec read time. The luciferase activity was expressed as mean relative light unit (RLU)±SD.
The stem-loop sequences containing a wild type 9 nt U1 binding sequence were synthesized (IDT) and cloned into pRL-SV40 vector. The construct sequences were verified by DNA sequencing (Genewiz). HEK 293 cells were transfected and Renilla luciferase assay were performed as described in Example 1.

Data set [2] relates to Renilla luciferase expression. As to the kind of experiment: Renilla luciferase assay of HEK 293 cells transfected with U1_theo riboswitch constructs, with or without theophylline. The data set is classed as cell-based. The following applies: for change of luciferase activity after theophylline treatment (in words): with vs without theophylline. As to the method: as §1, §2
Oligonucleotides containing either the full length of sequences of the stem from the stem-loop structure and theophylline aptamer or the truncated sequences of the stem, were synthesized (IDT) and cloned into pRL-SV40 vector using the Gibson Assembly Cloning Kit (NEB). Construct sequences were verified by DNA sequencing (Genewiz).
Transfection and aptamer ligand treatment: HEK 293 cells were transfected as described in Example 1. Four hours after transfection, the media was aspirated, and new media with or without 3 mM theophylline was added. A Renilla luciferase assay was performed 20 to 24 hours after theophylline treatment as described in Example 1. The induction fold was expressed as the quotient of luciferase activity obtained in the presence of aptamer ligand divided by the value obtained in the absence of the aptamer ligand.
Oligos containing 4 copies of the U1_theo_8_1 sequence in tandem were synthesized (IDT) and cloned using Gibson strategy and cloning kit (NEB). HEK 293 cells were transfected and Renilla luciferase assay was performed as described in Example 4.

B1: 87-9: 9-nt truncated U1 site at −87 in pRL-SV40 (nucleic acid)
DNA: TCAAATCGTTCGTTGAGCGAGTTCTCAAAAATGAACAATAATTCTAGAGCGGCCGCTTCGAGCAGACATGATAAGATACATTGATGAGTTTGGACAAACCAGGTAAGTCAACTAGAATGCAGTGAAAAAAATGCTTTATTTGTGAAATTTGTGATGCTATTGCTTTATTTGTAACCATTATAAGCTGCAATAAACAAGTTAACAACAAC
modifications: in pRL-SV40; 87-9 in pRL-SV40
notes: 9-nt truncated U1 site at −87 in pRL-SV40
In the case of B1, in data set [1], the “suppressive effect of U1 site on luciferase gene expression (in words)” value (“suppressive effect of U1 site” for short) is given as “functioned as well as the 10-nt U1 site”.

B2: U1_theo_9: U1 site stem linked to theophylline aptamer in pRL-SV40, stem truncation series (nucleic acid)
DNA: TCAAATCGTTCGTTGAGCGAGTTCTCAAAAATGAACAATAATTCTAGAGCGGCCGCTTCGAGCAGACATGATAAGATACATTGATGAGTTTGGACAAACCAAACCCAGGTAAGTATACCAGCCGAAAGGCCCTTGGCAGACTTACCTGGGCAACTAGAATGCAGTGAAAAAAATGCTTTATTTGTGAAATTTGTGATGCTATTGCTTTATTTGTAACCATTATAAGCTGCAATAAACAAGTTAACAACAAC
modifications: in pRL-SV40; U1_theo_9 in pRL-SV40
notes: U1 site stem linked to theophylline aptamer in pRL-SV40, stem truncation series
Turning to B2, the “change of luciferase activity after theophylline treatment (in words)” value was “small increase in luciferase activity” in data set [2] and “increased” in data set [2] (listed as 9).

B3: U1-140 mut: mutant U1 binding sequence at −140 in pRL-SV40 (nucleic acid)
DNA: TCAAATCGTTCGTTGAGCGAGTTCTCAAAAATGAACAATAATTCTAGACATGGAACTAGCGGCCGCTTCGAGCAGACATGATAAGATACATTGATGAGTTTGGACAAACCACAACTAGAATGCAGTGAAAAAAATGCTTTATTTGTGAAATTTGTGATGCTATTGCTTTATTTGTAACCATTATAAGCTGCAATAAACAAGTTAACAACAAC
modifications: in pRL-SV40; U1-140 mut in pRL-SV40
In the case of B3, the “suppressive effect of U1 site” value in data set [1] is “did not cause inhibition of luciferase gene expression”.

B4: U1-140 wt: consensus U1 binding sequence at −140 in pRL-SV40 (nucleic acid)
DNA: TCAAATCGTTCGTTGAGCGAGTTCTCAAAAATGAACAATAATTCTAGACAGGTAAGTAGCGGCCGCTTCGAGCAGACATGATAAGATACATTGATGAGTTTGGACAAACCACAACTAGAATGCAGTGAAAAAAATGCTTTATTTGTGAAATTTGTGATGCTATTGCTTTATTTGTAACCATTATAAGCTGCAATAAACAAGTTAACAACAAC
modifications: in pRL-SV40; U1-140 wt in pRL-SV40
Take B4: in data set [1], the “reduction fold (luciferase activity of mutant construct / wild type construct)” value was 12 fold and the “inhibition of Renilla luciferase expression/activity” value was 91%.

B5: 2×U1-140 wt: 2 copies of wild type U1 binding sequence at −140 in pRL-SV40 (nucleic acid)
DNA: TCAAATCGTTCGTTGAGCGAGTTCTCAAAAATGAACAATAATTCTAGACAGGTAAGTAACCAAACAGGTAAGTAGCGGCCGCTTCGAGCAGACATGATAAGATACATTGATGAGTTTGGACAAACCACAACTAGAATGCAGTGAAAAAAATGCTTTATTTGTGAAATTTGTGATGCTATTGCTTTATTTGTAACCATTATAAGCTGCAATAAACAAGTTAACAACAAC
modifications: in pRL-SV40; 2xU1-140 wt in pRL-SV40
For the molecule B5, the “reduction fold (luciferase activity of mutant construct / wild type construct)” value in data set [1] is 272 fold.

B6: U1 87-9 SL broken: control sequence in which no stem is formed, in pRL-SV40 (nucleic acid)
DNA: TCAAATCGTTCGTTGAGCGAGTTCTCAAAAATGAACAATAATTCTAGAGCGGCCGCTTCGAGCAGACATGATAAGATACATTGATGAGTTTGGACAAACCAAACCCAGGTAAGTTACCGAAAAAAACAAACAAAAAACAACTAGAATGCAGTGAAAAAAATGCTTTATTTGTGAAATTTGTGATGCTATTGCTTTATTTGTAACCATTATAAGCTGCAATAAACAAGTTAACAACAAC
modifications: in pRL-SV40; U1 87-9 SL broken in pRL-SV40
In the case of B6, the “suppressive effect of U1 site” value in data set [1] is on record as “showed little effect on the suppressive function of U1 site”.

B7: U1 87-9 SL: 9 nt U1 site embedded in a stem-loop structure in pRL-SV40 (nucleic acid)
DNA: TCAAATCGTTCGTTGAGCGAGTTCTCAAAAATGAACAATAATTCTAGAGCGGCCGCTTCGAGCAGACATGATAAGATACATTGATGAGTTTGGACAAACCAAACCCAGGTAAGTTACCGAAAGGTAACTTACCTGGGCAACTAGAATGCAGTGAAAAAAATGCTTTATTTGTGAAATTTGTGATGCTATTGCTTTATTTGTAACCATTATAAGCTGCAATAAACAAGTTAACAACAAC
modifications: in pRL-SV40; U1 87-9 SL in pRL-SV40
notes: 9 nt U1 site embedded in a stem-loop structure in pRL-SV40
B7: the “suppressive effect of U1 site” value is recorded as “completely abolished the suppressive effect of the U1 site” in data set [1] and “completely abolished the suppressive effect” in data set [1] (listed as U1 87-9 stem loop).

B8: U1_theo_8: U1 site stem linked to theophylline aptamer in pRL-SV40, stem truncation series (nucleic acid)
DNA: TCAAATCGTTCGTTGAGCGAGTTCTCAAAAATGAACAATAATTCTAGAGCGGCCGCTTCGAGCAGACATGATAAGATACATTGATGAGTTTGGACAAACCAAACCCAGGTAAGTGATACCAGCCGAAAGGCCCTTGGCAGCACTTACCTGGGCAACTAGAATGCAGTGAAAAAAATGCTTTATTTGTGAAATTTGTGATGCTATTGCTTTATTTGTAACCATTATAAGCTGCAATAAACAAGTTAACAACAAC
modifications: in pRL-SV40; U1_theo_8 in pRL-SV40
notes: as for B2
Take B8: the “induction fold of luciferase activity (theophylline treated / untreated)” value in data set [2] (3 mM theophylline, 20 to 24 hours) was 1.3 fold. For the same molecule, the “change of luciferase activity after theophylline treatment (in words)” value in data set [2] is listed as “small increase in luciferase activity”; in data set [2] (listed as 8), “increased”.

B9: U1-87 mut: 10-nt mutant U1 binding sequence at −87 in pRL-SV40 (nucleic acid)
DNA: TCAAATCGTTCGTTGAGCGAGTTCTCAAAAATGAACAATAATTCTAGAGCGGCCGCTTCGAGCAGACATGATAAGATACATTGATGAGTTTGGACAAACCATGGAACTACAACTAGAATGCAGTGAAAAAAATGCTTTATTTGTGAAATTTGTGATGCTATTGCTTTATTTGTAACCATTATAAGCTGCAATAAACAAGTTAACAACAAC
modifications: in pRL-SV40; U1-87 mut in pRL-SV40
In the case of B9, the “suppressive effect of U1 site” value in data set [1] is recorded as “did not have any suppressive effect on luciferase gene expression”.

B10: U1-87 wt: 10-nt consensus U1 binding sequence 87 nt upstream of poly(A) signal in 3′ UTR of pRL-SV40 (nucleic acid)
DNA: TCAAATCGTTCGTTGAGCGAGTTCTCAAAAATGAACAATAATTCTAGAGCGGCCGCTTCGAGCAGACATGATAAGATACATTGATGAGTTTGGACAAACCAGGTAAGTACAACTAGAATGCAGTGAAAAAAATGCTTTATTTGTGAAATTTGTGATGCTATTGCTTTATTTGTAACCATTATAAGCTGCAATAAACAAGTTAACAACAAC
modifications: in pRL-SV40; U1-87 wt in pRL-SV40
For B10, in data set [1], the “reduction fold (luciferase activity of mutant construct / wild type construct)” value was 50 fold and the “inhibition of Renilla luciferase expression/activity” value stood at 98%.

B11: 3×U1-140 wt: 3 copies of wild type U1 binding sequence at −140 in pRL-SV40 (nucleic acid)
DNA: TCAAATCGTTCGTTGAGCGAGTTCTCAAAAATGAACAATAATTCTAGACAGGTAAGTAACCAAACAGGTAAGTAACCAAACAGGTAAGTAGCGGCCGCTTCGAGCAGACATGATAAGATACATTGATGAGTTTGGACAAACCACAACTAGAATGCAGTGAAAAAAATGCTTTATTTGTGAAATTTGTGATGCTATTGCTTTATTTGTAACCATTATAAGCTGCAATAAACAAGTTAACAACAAC
modifications: in pRL-SV40; 3xU1-140 wt in pRL-SV40
For the molecule B11, in data set [1], the “reduction fold (luciferase activity of mutant construct / wild type construct)” value worked out at 462 fold.
